Biological target: T1, His-DUB3 (deubiquitinating enzyme 3) (UniProt Q6R6M4 1-530)
T1 construct: deubiquitinating enzyme 3 (DUB3); also called purified recombinant His-DUB3; source: purified recombinant (cloned into PET28A)
T1 sequence (looked up): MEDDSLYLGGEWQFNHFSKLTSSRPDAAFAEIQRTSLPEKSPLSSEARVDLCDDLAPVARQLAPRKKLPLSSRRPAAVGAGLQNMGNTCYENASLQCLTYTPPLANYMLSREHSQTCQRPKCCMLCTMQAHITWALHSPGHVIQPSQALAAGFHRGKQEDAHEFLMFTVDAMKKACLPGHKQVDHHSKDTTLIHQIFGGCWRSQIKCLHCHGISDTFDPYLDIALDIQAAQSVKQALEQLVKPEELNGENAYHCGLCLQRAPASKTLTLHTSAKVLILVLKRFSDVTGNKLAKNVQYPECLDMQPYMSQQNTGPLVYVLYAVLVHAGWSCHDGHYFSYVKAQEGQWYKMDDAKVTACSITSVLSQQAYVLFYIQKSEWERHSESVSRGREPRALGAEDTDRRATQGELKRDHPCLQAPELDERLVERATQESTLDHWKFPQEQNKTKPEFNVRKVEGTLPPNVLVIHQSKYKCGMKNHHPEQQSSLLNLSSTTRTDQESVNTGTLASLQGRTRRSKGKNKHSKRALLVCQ
Assay: pull-down; purified recombinant GST or GST fusion protein incubated in vitro (cell-free) with purified recombinant His-tagged protein; blot and Coomassie blue staining
Settings: both partners purified

binding result: binds
B1: GST-CDK4 (cyclin-dependent kinase 4) (enzyme, UniProt P11802 1-303, looked up)
chain: MATSRYEPVAEIGVGAYGTVYKARDPHSGHFVALKSVRVPNGGGGGGGLPISTVREVALLRRLEAFEHPNVVRLMDVCATSRTDREIKVTLVFEHVDQDLRTYLDKAPPPGLPAETIKDLMRQFLRGLDFLHANCIVHRDLKPENILVTSGGTVKLADFGLARIYSYQMALTPVVVTLWYRAPEVLLQSTYATPVDMWSVGCIFAEMFRRKPLFCGNSEADQLGKIFDLIGLPPEDDWPRDVSLPRGAFPPRGPRPVQSVVPEMEESGAQLLLEMLTFNPHKRISAFRALQHSYLHKDEGNPE
notes: cyclin-dependent kinase 4 (CDK4); CDK4 and CDK6 were cloned as separate genes, so they are written as two molecules; No cyclin is mentioned; also called GST-CDK4/6; source: purified recombinant (cloned into pGEX4T-1)

From PMC11832431 (MedComm, 2025)
